In US20200308299A1, “ANTI-GPC-1 ANTIBODY” (National University Corporation Kochi University, priority 2017, published 2020):

Tests used:
[1] = tested on: TE14 cells; test: ADC assay combining anti-GPC-1 antibody and MMAF binding secondary antibody, TE14 cells; assay type: cell-based; conditions: primary antibody plus MMAF secondary antibody
Protocol: FIG. 1 depicts a schematic diagram of an ADC used in an assay. This Example used a secondary antibody (MORADEC) to the anti-GPC1 antibody made in Example 1, to which an anticancer agent (MMAF) was bound via a linker.
2000 TE14 cells were added to a 96-well plate at 80 μl. The cells were cultured overnight at 37° C. in a 5% CO2 incubator. The next day, 10 μl of an anticancer agent bound secondary antibody and 10 μl of a primary antibody concentrated 10-fold relative to the final concentration was added to each well, so that the total amount was 100 μl. The cells were cultured for 6 days at 37° C. in a 5% CO2 incubator. The cell viability was measured by using a CellTiter-Glo Luminescent Cell Viability Assay reagent to detect the amount of ATP. RPMI1640+10% FBS+1% PS was used as the medium. The final concentrations of the primary antibody were 0, 0.004, 0.0156, 0.0625, 0.25, and 1.0 nM. 2 μg/ml of Fab-aMFc-CL-MMAF (model number: AM202AF-50, Moradec) was used as the secondary antibody.

[2] = tested on: DU145 cells; test: ADC assay combining anti-GPC-1 antibody and MMAF binding secondary antibody in DU145 cells; assay type: cell-based; conditions: 3 days; for EC50 values against DU145 cells: primary antibody plus MMAF secondary antibody
Protocol: 2000 DU145 cells were added to a 96-well plate at 80 μl. The cells were cultured overnight at 37° C. in a 5% CO2 incubator. The next day, 10 μl each of anticancer agent binding secondary antibody (2 μg/ml) and primary antibody concentrated 10-fold relative to the final concentration was added to each well, so that the total amount was 100 μl. The cells were cultured for 3 days at 37° C. in a 5% CO2 incubator. The cell viability was measured by using a CellTiter-Glo Luminescent Cell Viability Assay reagent to detect the amount of ATP. RPMI1640+10% FBS+1% PS was used as the medium. The final concentrations of the primary antibodies were […]. 2 μg/ml of Fab-aMFc-CL-MMAF (model number AM202AF-50, Moradec) was used as the secondary antibody. The EC50 value was analyzed with GraphPad Prism 6. The same experiment was conducted using 4000 MDA-MB231 cells as the control.

Molecule	EC50 values against TE14 cells [1]	EC50 values against DU145 cells [2]	growth suppressing effect against DU145 cells ([2]; primary antibody plus MMAF secondary antibody 2 μg/ml)
clone 4: anti-Glypican-1 antibody, heavy chain SEQ ID NO: 198, light chain SEQ ID NO: 200; sequence from WO 2015/098112 (antibody) heavy: AVTLDESGGGLQTPGRALSLVCKASGFTFSRYAMYWVRQAPGKGLEFVAGIGNTGRYTGYGSAVKGRATISRDSGQSTVRLQLNNLRAEDTGNYYCAKSVSPYCCDAADIDAWGHGTEVIVSS light: ASTQPSSVSANPGETVKITCSGGSSGYAYGWYQQKSPGSAPVTLLYSNNNRPSDIPSRFSGSKSGSTATLTITGVQAEDEAVYFCGSVDSSSYAGIFGAGTTLTVL	excellent EC50 values	excellent EC50 values	–
clone 01a016: anti-human Glypican-1 antibody, heavy chain SEQ ID NO: 134, light chain SEQ ID NO: 136 (antibody) heavy: MKHLWFFLLLVAAPRWVLSQVHLQQSGPELVKPGASVKISCKASGYTFTDYYINWVKQKPGQGLEWIGYIDPYNDGSKYNEKFKGKATLTSDKSSSTAYMELSSLTSEDSAVYYCARTPYYSFYSYGFYFDYWGQGTTLTVSSAKTTAPSVYPLAPVCGDTTGSSVTLGCLVKGYFPEPVTLTWNSGSLSSGVHTFPAVLQSDLYTLSSSVTVTSSTWPSQSITCNVAHPASSTKVDKKIEPRGPTIKPCPPCKCPAPNLLGGPSVFIFPPKIKDVLMISLSPIVTCVVVDVSEDDPDVQISWFVNNVEVHTAQTQTHREDYNSTLRVVSALPIQHQDWMSGKEFKCKVNNKDLPAPIERTISKPKGSVRAPQVYVLPPPEEEMTKKQVTLTCMVTDFMPEDIYVEWTNNGKTELNYKNTEPVLDSDGSYFMYSKLRVEKKNWVERNSYSCSVVHEGLHNHHTTKSFSRTPGK light: MRLLAQLLGLLMLWVPGSSGDIVLTQSPASLAVSLGQRATISCRASKSVSTSSYSYMHWYQQKPGQPPKLLIKYASYLESGVPARFSGSGSGTDFTLNIHPVEEEDAATYYCQHSREFPLTFGAGTKLELKRADAAPTVSIFPPSSEQLTSGGASVVCFLNNFYPKDINVKWKIDGSERQNGVLNSWTDQDSKDSTYSMSSTLTLTKDEYERHNSYTCEATHKTSTSPIVKSFNRNEC	excellent EC50 values	excellent EC50 values	–
clone 01a009: anti-human Glypican-1 antibody, heavy chain SEQ ID NO: 150, light chain SEQ ID NO: 152 (antibody) heavy: MKHLWFFLLLVAAPRWVLSEVQLQQSGPELVKPGASVEISCKASGYSFTGYFMNWVKQSQGKSLEWIGRINPDNGDIFYNQKFKGKATLTVDKSSSTAHMELRSLTSEDSAVYYCARSWNWYFDVWGAGTTVTVSSAKTTAPSVYPLAPVCGDTTGSSVTLGCLVKGYFPEPVTLTWNSGSLSSGVHTFPAVLQSDLYTLSSSVTVTSSTWPSQSITCNVAHPASSTKVDKKIEPRGPTIKPCPPCKCPAPNLLGGPSVFIFPPKIKDVLMISLSPIVTCVVVDVSEDDPDVQISWFVNNVEVHTAQTQTHREDYNSTLRVVSALPIQHQDWMSGKEFKCKVNNKDLPAPIERTISKPKGSVRAPQVYVLPPPEEEMTKKQVTLTCMVTDFMPEDIYVEWTNNGKTELNYKNTEPVLDSDGSYFMYSKLRVEKKNWVERNSYSCSVVHEGLHNHHTTKSFSRTPGK light: MRLLAQLLGLLMLWVPGSSGDIQMTQSPASLSASVGETVTITCRASENIYSYLAWYQQKQGKSPQLLVYNAKTLAEGVPSRFSGSGSGTQFSLKINSLQPEDFGSYYCQHHYGTPYTFGSGTKLEIKRADAAPTVSIFPPSSEQLTSGGASVVCFLNNFYPKDINVKWKIDGSERQNGVLNSWTDQDSKDSTYSMSSTLTLTKDEYERHNSYTCEATHKTSTSPIVKSFNRNEC	excellent EC50 values	excellent EC50 values	–
clone 01a026: anti-human Glypican-1 antibody, heavy chain SEQ ID NO: 146, light chain SEQ ID NO: 148 (antibody) heavy: MKHLWFFLLLVAAPRWVLSQVHLQQSGAELVRPGTSVKMSCKAAGYTFTNYWIGWVKQRPGHGLEWIGDIYPGGGYTHYNEKFKGKATLTADTSSSTAYMQLSSLTSEDSAIYYCARERVYYDGSRFFDVWGAGTTVTVSSAKTTAPSVYPLAPVCGDTTGSSVTLGCLVKGYFPEPVTLTWNSGSLSSGVHTFPAVLQSDLYTLSSSVTVTSSTWPSQSITCNVAHPASSTKVDKKIEPRGPTIKPCPPCKCPAPNLLGGPSVFIFPPKIKDVLMISLSPIVTCVVVDVSEDDPDVQISWFVNNVEVHTAQTQTHREDYNSTLRVVSALPIQHQDWMSGKEFKCKVNNKDLPAPIERTISKPKGSVRAPQVYVLPPPEEEMTKKQVTLTCMVTDFMPEDIYVEWTNNGKTELNYKNTEPVLDSDGSYFMYSKLRVEKKNWVERNSYSCSVVHEGLHNHHTTKSFSRTPGK light: MRLLAQLLGLLMLWVPGSSGDIVMSQSPKFLPVSAGDRVTMTCKASQSVGNNVAWYQQKPGQSPKLLIYYASNRYTGVPDRFTGSGSGTDFTFTISSVQVEDLAVYFCQQHYSSPWTFGGGTKLEIKRADAAPTVSIFPPSSEQLTSGGASVVCFLNNFYPKDINVKWKIDGSERQNGVLNSWTDQDSKDSTYSMSSTLTLTKDEYERHNSYTCEATHKTSTSPIVKSFNRNEC	excellent EC50 values	excellent EC50 values	–
clone 01a002: anti-human Glypican-1 antibody, heavy chain SEQ ID NO: 126, light chain SEQ ID NO: 128 (antibody) heavy: MKHLWFFLLLVAAPRWVLSEVQLQQSGPELVKPGASVKISCKSSGYSFTRYYMHWVKHSPEKSLEWIGEINPSTGDTTYNQKFKAKATLTVDKSSSTAYMQLKSLTSEDSAVYYCAREKRDDGVLAYWGQGTLVTVSSAKTTAPSVYPLAPVCGDTTGSSVTLGCLVKGYFPEPVTLTWNSGSLSSGVHTFPAVLQSDLYTLSSSVTVTSSTWPSQSITCNVAHPASSTKVDKKIEPRGPTIKPCPPCKCPAPNLLGGPSVFIFPPKIKDVLMISLSPIVTCVVVDVSEDDPDVQISWFVNNVEVHTAQTQTHREDYNSTLRVVSALPIQHQDWMSGKEFKCKVNNKDLPAPIERTISKPKGSVRAPQVYVLPPPEEEMTKKQVTLTCMVTDFMPEDIYVEWTNNGKTELNYKNTEPVLDSDGSYFMYSKLRVEKKNWVERNSYSCSVVHEGLHNHHTTKSFSRTPGK light: MRLLAQLLGLLMLWVPGSSGDIQMTQSPKFLPVSAGDRVTMTCKASQSVGNNVAWYQQKPGQSPKLLIYYASNRYTGVPDRFTGSGSGTDFTFTISSVQVEDLAVYFCQQHYSSPLTFGAGTKLELKRADAAPTVSIFPPSSEQLTSGGASVVCFLNNFYPKDINVKWKIDGSERQNGVLNSWTDQDSKDSTYSMSSTLTLTKDEYERHNSYTCEATHKTSTSPIVKSFNRNEC	excellent EC50 values	excellent EC50 values	high growth suppressing effect
clone 01a030: anti-human Glypican-1 antibody, heavy chain SEQ ID NO: 154, light chain SEQ ID NO: 156 (antibody) heavy: MKHLWFFLLLVAAPRWVLSQVQLQQSGAELVRPGTSVKMSCKAAGYTFTNYWIGWVKQRPGHGLEWIGDIYPGGGYTHYNEKFKGKATLTADTSSSTAYMQLSSLTSEDSAIYYCARERVYYDGSRYFDVWGAGTTVTVSSAKTTAPSVYPLAPVCGDTTGSSVTLGCLVKGYFPEPVTLTWNSGSLSSGVHTFPAVLQSDLYTLSSSVTVTSSTWPSQSITCNVAHPASSTKVDKKIEPRGPTIKPCPPCKCPAPNLLGGPSVFIFPPKIKDVLMISLSPIVTCVVVDVSEDDPDVQISWFVNNVEVHTAQTQTHREDYNSTLRVVSALPIQHQDWMSGKEFKCKVNNKDLPAPIERTISKPKGSVRAPQVYVLPPPEEEMTKKQVTLTCMVTDFMPEDIYVEWTNNGKTELNYKNTEPVLDSDGSYFMYSKLRVEKKNWVERNSYSCSVVHEGLHNHHTTKSFSRTPGK light: MRLLAQLLGLLMLWVPGSSGDIKMTQSPKFLPVSAGDRVTMTCKASQSVGNNVAWYQQKPGQSPKLLIYYASNRYTGVPDRFTGSGSGTDFTFTISSVQVEDLAVYFCQQHYSSPWTFGGGTKLEIKRADAAPTVSIFPPSSEQLTSGGASVVCFLNNFYPKDINVKWKIDGSERQNGVLNSWTDQDSKDSTYSMSSTLTLTKDEYERHNSYTCEATHKTSTSPIVKSFNRNEC	excellent EC50 values	excellent EC50 values	–
